Reference: paper PMC7327521 (Journal of Molecular Biology, 2020)
Square brackets hold non-standard residues; d marks the D form. Ends that are not written are not given here. pY = N[C@@H](Cc1ccc(OP(=O)(O)O)cc1)C(=O)O; pT = C[C@@H](OP(=O)(O)O)[C@H](N)C(=O)O; pS = N[C@@H](COP(=O)(O)O)C(=O)O

Target: T1, tandem SH2 domain of C. glabrata Spt6 (Spt6-tSH2) (C. glabrata, UniProt Q6FLB1 1250-1444)
T1 sequence (looked up): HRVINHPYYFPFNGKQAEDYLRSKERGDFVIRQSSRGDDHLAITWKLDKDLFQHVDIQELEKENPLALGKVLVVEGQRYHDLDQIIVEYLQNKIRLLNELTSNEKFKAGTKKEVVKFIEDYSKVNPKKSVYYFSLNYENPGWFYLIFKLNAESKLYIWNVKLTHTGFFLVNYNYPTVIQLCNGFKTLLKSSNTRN
Experiment: fluorescence polarisation

{5,6‑FAM}-PSYSP[pT]SPSYSP[pT]SPS [(pT4-CTD)2]
Kd: 7.2 µM

{5,6‑FAM}-PS[pY][pS]PTSPS[pY][pS]PTSPS [(pY1pS2-CTD)2]
Kd: 0.3 µM

{5,6‑FAM}-PSYSPTSPS[pY]SPTSPS [PS(YSPTSPS)(pYSPTSPS)]
Kd: 36.8 µM

{5,6‑FAM}-PS[pY]SPTSPS [(pY1-CTD)1]
Kd: 38.7 µM

{5,6‑FAM}-PS[pY]SPT[pS]PS[pY]SPT[pS]PS [(pY1pS5-CTD)2]
Kd: 0.3 µM

DDDEDGYNPYTL [Nrd1 Interaction Motif (NIM) peptide from Trf4]
Kd: 3.3 µM

{5,6‑FAM}-PSY[pS]P[pT]SPSYSPTSPS [PS(YpSPpTSPS)(YSPTSPS)]
Kd: 5.7 µM

{5,6‑FAM}-PS[pY]SPTSPSYSPTSPS [PS(pYSPTSPS)(YSPTSPS)]
Kd: 45.4 µM
